Results on twelve molecules are retold here after paper PMC8298264, “Function of cofactor Akirin2 in the regulation of gene expression in model human neutrophil-like HL60 cells” (Bioscience Reports, 2021).

First the molecules themselves.
B1: sp¦P54727¦RD23B_HUMAN (protein, UniProt P54727 1-409, looked up)
UV excision repair protein …: MQVTLKTLQQQTFKIDIDPEETVKALKEKIESEKGKDAFPVAGQKLIYAGKILNDDTALKEYKIDEKNFVVVMVTKPKAVSTPAPATTQQSAPASTTAVTSSTTTTVAQAPTPVPALAPTSTPASITPASATASSEPAPASAAKQEKPAEKPAETPVATSPTATDSTSGDSSRSNLFEDATSALVTGQSYENMVTEIMSMGYEREQVIAALRASFNNPDRAVEYLLMGIPGDRESQAVVDPPQAASTGAPQSSAVAAAAATTTATTTTTSSGGHPLEFLRNQPQFQQMRQIIQQNPSLLPALLQQIGRENPQLLQQISQHQEHFIQMLNEPVQEAGGQGGGGGGGSGGIAEAGSGHMNYIQVTPQEKEAIERLKALGFPEGLVIQAYFACEKNENLAANFLLQQNFDED
B2: sp¦O75937¦DNJC8_HUMAN (protein, UniProt O75937 2-253, looked up)
DnaJ homolog subfamily C …: AASGESGTSGGGGSTEEAFMTFYSEVKQIEKRDSVLTSKNQIERLTRPGSSYFNLNPFEVLQIDPEVTDEEIKKRFRQLSILVHPDKNQDDADRAQKAFEAVDKAYKLLLDQEQKKRALDVIQAGKEYVEHTVKERKKQLKKEGKPTIVEEDDPELFKQAVYKQTMKLFAELEIKRKEREAKEMHERKRQREEEIEAQEKAKREREWQKNFEESRDGRVDSWRNFQANTKGKKEKKNRTFLRPPKVKMEQRE
B3: sp¦O43396¦TXNL1_HUMAN (protein, UniProt O43396 2-289, looked up)
Thioredoxin-like protein 1: VGVKPVGSDPDFQPELSGAGSRLAVVKFTMRGCGPCLRIAPAFSSMSNKYPQAVFLEVDVHQCQGTAATNNISATPTFLFFRNKVRIDQYQGADAVGLEEKIKQHLENDPGSNEDTDIPKGYMDLMPFINKAGCECLNESDEHGFDNCLRKDTTFLESDCDEQLLITVAFNQPVKLYSMKFQGPDNGQGPKYVKIFINLPRSMDFEEAERSEPTQALELTEDDIKEDGIVPLRYVKFQNVNSVTIFVQSNQGEEETTRISYFTFIGTPVQATNMNDFKRVVGKKGESH
B4: sp¦Q8WW12¦PCNP_HUMAN (protein, UniProt Q8WW12 2-178, looked up)
PEST proteolytic …: ADGKAGDEKPEKSQRAGAAGGPEEEAEKPVKTKTVSSSNGGESSSRSAEKRSAEEEAADLPTKPTKISKFGFAIGSQTTKKASAISIKLGSSKPKETVPTLAPKTLSVAAAFNEDEDSEPEEMPPEAKMRMKNIGRDTPTSAGPNSFNKGKHGFSDNQKLWERNIKSHLGNVHDQDN
B5: sp¦P52209¦6PGD_HUMAN (protein, UniProt P52209 1-483, looked up)
6-phosphogluconate …: MAQADIALIGLAVMGQNLILNMNDHGFVVCAFNRTVSKVDDFLANEAKGTKVVGAQSLKEMVSKLKKPRRIILLVKAGQAVDDFIEKLVPLLDTGDIIIDGGNSEYRDTTRRCRDLKAKGILFVGSGVSGGEEGARYGPSLMPGGNKEAWPHIKTIFQGIAAKVGTGEPCCDWVGDEGAGHFVKMVHNGIEYGDMQLICEAYHLMKDVLGMAQDEMAQAFEDWNKTELDSFLIEITANILKFQDTDGKHLLPKIRDSAGQKGTGKWTAISALEYGVPVTLIGEAVFARCLSSLKDERIQASKKLKGPQKFQFDGDKKSFLEDIRKALYASKIISYAQGFMLLRQAATEFGWTLNYGGIALMWRGGCIIRSVFLGKIKDAFDRNPELQNLLLDDFFKSAVENCQDSWRRAVSTGVQAGIPMPCFTTALSFYDGYRHEMLPASLIQAQRDYFGAHTYELLAKPGQFIHTNWTGHGGTVSSSSYNA
B6: sp¦Q9BY43¦CHM4A_HUMAN (protein, UniProt Q9BY43 1-222, looked up)
Charged multivesicular body …: MSGLGRLFGKGKKEKGPTPEEAIQKLKETEKILIKKQEFLEQKIQQELQTAKKYGTKNKRAALQALRRKKRFEQQLAQTDGTLSTLEFQREAIENATTNAEVLRTMELAAQSMKKAYQDMDIDKVDELMTDITEQQEVAQQISDAISRPMGFGDDVDEDELLEELEELEQEELAQELLNVGDKEEEPSVKLPSVPSTHLPAGPAPKVDEDEEALKQLAEWVS
B7: sp¦P10599¦THIO_HUMAN (protein, UniProt P10599 2-105, looked up)
Thioredoxin: VKQIESKTAFQEALDAAGDKLVVVDFSATWCGPCKMIKPFFHSLSEKYSNVIFLEVDVDDCQDVASECEVKCMPTFQFFKKGQKVGEFSGANKEKLEATINELV
B8: sp¦P49458¦SRP09_HUMAN (protein, UniProt P49458 2-86, looked up)
Signal recognition particle 9 …: PQYQTWEEFSRAAEKLYLADPMKARVVLKYRHSDGNLCVKVTDDLVCLVYKTDQAQDVKKIEKFHSQLMRLMVAKEARNVTMETE
B9: sp¦P68104¦EF1A1_HUMAN (protein, UniProt P68104 2-462, looked up)
Elongation factor 1-alpha 1: GKEKTHINIVVIGHVDSGKSTTTGHLIYKCGGIDKRTIEKFEKEAAEMGKGSFKYAWVLDKLKAERERGITIDISLWKFETSKYYVTIIDAPGHRDFIKNMITGTSQADCAVLIVAAGVGEFEAGISKNGQTREHALLAYTLGVKQLIVGVNKMDSTEPPYSQKRYEEIVKEVSTYIKKIGYNPDTVAFVPISGWNGDNMLEPSANMPWFKGWKVTRKDGNASGTTLLEALDCILPPTRPTDKPLRLPLQDVYKIGGIGTVPVGRVETGVLKPGMVVTFAPVNVTTEVKSVEMHHEALSEALPGDNVGFNVKNVSVKDVRRGNVAGDSKNDPPMEAAGFTAQVIILNHPGQISAGYAPVLDCHTAHIACKFAELKEKIDRRSGKKLEDGPKFLKSGDAAIVDMVPGKPMCVESFSDYPPLGRFAVRDMRQTVAVGVIKAVDKKAAGAGKVTKSAQKAQKAK
B10: sp¦P04075¦ALDOA_HUMAN (protein, UniProt P04075 2-364, looked up)
Fructose-bisphosphate …: PYQYPALTPEQKKELSDIAHRIVAPGKGILAADESTGSIAKRLQSIGTENTEENRRFYRQLLLTADDRVNPCIGGVILFHETLYQKADDGRPFPQVIKSKGGVVGIKVDKGVVPLAGTNGETTTQGLDGLSERCAQYKKDGADFAKWRCVLKIGEHTPSALAIMENANVLARYASICQQNGIVPIVEPEILPDGDHDLKRCQYVTEKVLAAVYKALSDHHIYLEGTLLKPNMVTPGHACTQKFSHEEIAMATVTALRRTVPPAVTGITFLSGGQSEEEASINLNAINKCPLLKPWALTFSYGRALQASALKAWGGKKENLKAAQEEYVKRALANSLACQGKYTPSGQAGAAASESLFVSNHAY
B11: sp¦Q9HB71¦CYBP_HUMAN (protein, UniProt Q9HB71 2-228, looked up)
Calcyclin-binding protein: ASEELQKDLEEVKVLLEKATRKRVRDALTAEKSKIETEIKNKMQQKSQKKAELLDNEKPAAVVAPITTGYTVKISNYGWDQSDKFVKIYITLTGVHQVPTENVQVHFTERSFDLLVKNLNGKSYSMIVNNLLKPISVEGSSKKVKTDTVLILCRKKVENTRWDYLTQVEKECKEKEKPSYDTETDPSEGLMNVLKKIYEDGDDDMKRTINKAWVESREKQAKGDTEF
B12: sp¦O75792¦RNH2A_HUMAN (protein, UniProt O75792 1-299, looked up)
Ribonuclease H2 subunit A: MDLSELERDNTGRCRLSSPVPAVCRKEPCVLGVDEAGRGPVLGPMVYAICYCPLPRLADLEALKVADSKTLLESERERLFAKMEDTDFVGWALDVLSPNLISTSMLGRVKYNLNSLSHDTATGLIQYALDQGVNVTQVFVDTVGMPETYQARLQQSFPGIEVTVKAKADALYPVVSAASICAKVARDQAVKKWQFVEKLQDLDTDYGSGYPNDPKTKAWLKEHVEPVFGFPQFVRFSWRTAQTILEKEAEDVIWEDSASENQEGLRKITSYFLNEGSQARPRSSHRYFLERGLESATSL

The subject of one test is human HL60 cells. The experiment in a line: SWATH-MS proteomics, differential protein representation, akirin2 KO vs WT HL60 cells. The following applies: Over-represented in KO; KO vs WT HL60 cells. It is filed as cell-based. The protocol: Total proteins were extracted from WT and akirin2 KO HL60 cells using the AllPrep DNA/RNA/Protein Mini Kit (Qiagen) and protein concentration was determined using the BCA Protein Assay with BSA (Sigma–Aldrich) as standard. Protein extracts (150 µg per sample, n=3 biological replicates) from each WT and KO cells were trypsin digested using the FASP Protein Digestion Kit (Expedeon Ltd., Abcam, Cambridge, U.K.) and sequencing grade trypsin (Promega, Madison, WI, U.S.A.) following manufacturer’s recommendations. The resulting peptides were finally desalted on to OMIX Pipette tips C18 (Agilent Technologies, Santa Clara, CA, U.S.A.), dried down and stored at −20 °C until mass spectrometry analysis. […] Three micrograms of each protein digest from the three biological replicates of WT and akirin2 KO HL60 cells were used for the generation of the reference spectral ion library as part of the SWATH-MS analysis.
Peptides were eluted in a 120-min gradient from 5 to 30% solvent B in solvent A followed by 15-min gradient from 30 to 60% solvent B in solvent A (solvent A: 0.1% formic acid in water, solvent B: 0.1% formic acid in acetonitrile) and directly injected into the mass spectrometer for analysis. For IDA experiments, the mass spectrometer was set to scanning full spectra (350–1400 m/z) using 250 ms accumulation time per spectrum, followed by up to 50 MS/MS scans (100–1500 m/z). Candidate ions with a charge state between +2 and +5 counts per second above a minimum threshold of 100 were isolated for fragmentation. One MS/MS spectrum was collected for 100 ms, before adding those precursor ions to the exclusion list for 15 s (mass spectrometer operated by Analyst TF 1.6, AB Sciex). Dynamic background subtraction was turned off. MS/MS analyses were recorded in high-sensitivity mode with rolling collision energy on and a collision energy spread of 5. For SWATH quantitative analysis, six independent samples (three replicates from WT and akirin2 KO HL60 cells, 5 µg each) were subjected to the cyclic DIA of mass spectra using the SWATH variable windows calculator (V 1.0, AB Sciex) and the SWATH acquisition method editor (AB Sciex), similar to established methods. […] For these experiments, a 50-ms survey scan (350–1400 m/z) was acquired at the beginning of each cycle, and SWATH–MS/MS spectra were collected from 100–1500 m/z for 70 ms at high-sensitivity mode, resulting in a cycle time of 3.6 s. Collision energy for each window was determined according to the calculation for a charge +2 ion-centered upon the window with a collision energy spread of 15. To create a spectral library of all the detectable peptides in the samples, the IDA MS raw files were combined and subjected to database search in unison using ProteinPilot software v. 5.0.1 (AB Sciex) with the Paragon algorithm. […] The detected protein threshold was set at 0.05. An independent false discovery rate (FDR) analysis, using the target–decoy approach provided by Protein Pilot (AB Sciex; https://sciex.com/products/software/proteinpilot-software), was used to assess the quality of identifications. Positive identifications were considered when identified proteins reached 1% of global FDR. […] Global normalization was performed according to the Total Area Sums (TAS) of all detected proteins in the samples. […] Heatmaps were prepared using the Heatmapper (http://www.heatmapper.ca/expression/) with average linkage and Euclidean distance measurement method.
For the molecule B1, the “Fold Change” value came to 1.363 and the “Log (Fold Change)” value is reported as 0.1346.

Take B2: the “Fold Change” value was determined as 1.352 and the “Log (Fold Change)” value is listed as 0.1309.

On to B3, for which the “Fold Change” value was 1.348 and the “Log (Fold Change)” value is reported as 0.1296.

Regarding B4, the “Fold Change” value is listed as 1.373 and the “Log (Fold Change)” value is on record as 0.1375.

Take B5: the “Fold Change” value is recorded as 1.367 and the “Log (Fold Change)” value is reported as 0.1359.

For B6, the “Fold Change” value is given as 1.396 and the “Log (Fold Change)” value is on record as 0.1447.

With B7, the “Fold Change” value was found to be 1.394 and the “Log (Fold Change)” value is reported as 0.1444.

As to B8, the “Fold Change” value came to 1.349 and the “Log (Fold Change)” value worked out at 0.1301.

The same test, now with this note: SWATH-MS, akirin2 KO vs WT HL60 cells; over-represented in KO.
As to B9, the “Fold Change” value is listed as 1.443 and the “Log (Fold Change)” value stood at 0.1593.

For B10, the “Fold Change” value was 1.436 and the “Log (Fold Change)” value is 0.1572.

Consider B11, for which the “Fold Change” value stood at 1.407 and the “Log (Fold Change)” value is on record as 0.1482.

Take B12: the “Fold Change” value was determined as 1.47 and the “Log (Fold Change)” value is on record as 0.1673.
